Experiment [1] has as its target T1, Rpn9 (S. cerevisiae (yeast)) (UniProt Q04062).
T1 sequence: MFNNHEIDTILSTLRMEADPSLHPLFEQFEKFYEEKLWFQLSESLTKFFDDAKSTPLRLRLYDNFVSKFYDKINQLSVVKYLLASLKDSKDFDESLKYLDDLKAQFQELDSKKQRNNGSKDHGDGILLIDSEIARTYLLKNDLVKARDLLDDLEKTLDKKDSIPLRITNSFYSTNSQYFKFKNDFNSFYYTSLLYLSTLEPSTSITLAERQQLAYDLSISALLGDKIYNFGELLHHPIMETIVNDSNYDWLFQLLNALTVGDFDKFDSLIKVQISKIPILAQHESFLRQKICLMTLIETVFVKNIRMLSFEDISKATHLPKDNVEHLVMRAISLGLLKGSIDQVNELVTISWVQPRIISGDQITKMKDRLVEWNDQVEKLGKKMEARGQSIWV

For experiment [2], the target named is Rpn11 (S. cerevisiae (yeast)) (UniProt P43588).
For experiment [3] the target is unchanged. This is another data set of the same source.
Experiment [4] has the same target. The source holds these as a separate data set.
For another experiment, the target named is Rpn11 (S. cerevisiae (yeast), UniProt P43588 1-306). The experiment in a line: cell-based or functional assay.
Chain of Rpn11 (P43588 whole entry): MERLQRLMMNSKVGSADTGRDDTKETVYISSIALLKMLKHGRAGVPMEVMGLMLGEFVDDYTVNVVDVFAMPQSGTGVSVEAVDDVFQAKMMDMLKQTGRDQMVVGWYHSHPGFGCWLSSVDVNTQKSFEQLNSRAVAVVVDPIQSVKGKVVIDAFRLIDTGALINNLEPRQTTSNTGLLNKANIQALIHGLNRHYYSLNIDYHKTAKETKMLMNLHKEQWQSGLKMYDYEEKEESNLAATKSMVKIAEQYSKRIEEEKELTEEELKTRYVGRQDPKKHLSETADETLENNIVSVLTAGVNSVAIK

Chain of Rpn11 (S. cerevisiae (yeast)) (P43588 whole entry): as above

B1: Rpn8 (K86A,K88A) (natural protein)
chain: MSLQHEKVTIAPLVLLSALDHYERTQTKENKRCVGVILGDANSSTIRVTNSFALPFEEDEKNSDVWFLDHNYIENMNEMCKKINAAEALIGWYHSGPKLRASDLKINELFKKYTQNNPLLLIVDVKQQGVGLPTDAYVAIEQVKDDGTSTEKTFLHLPCTIEAEEAEEIGVEHLLRDVRDQAAGGLSIRLTNQLKSLKGLQSKLKDVVEYLDKVINKELPINHTILGKLQDVFNLLPNLGTPDDDEIDVENHDRINISNNLQKALTVKTNDELMVIYISNLVRSIIAFDDLIENKIQNKKIQEQRVKDKQSKVSDDSESESGDKEATAPLIQRKNKKN
Turning to B1, the Ub-AMC cleavage rate of Rpn11 in the isolated lid with this variant, relative to the isolated MPN heterodimer (% of the isolated MPN heterodimer) in experiment [1] came out at 60.

B2: Rpn8 (K88A) (natural protein)
chain: MSLQHEKVTIAPLVLLSALDHYERTQTKENKRCVGVILGDANSSTIRVTNSFALPFEEDEKNSDVWFLDHNYIENMNEMCKKINAKEALIGWYHSGPKLRASDLKINELFKKYTQNNPLLLIVDVKQQGVGLPTDAYVAIEQVKDDGTSTEKTFLHLPCTIEAEEAEEIGVEHLLRDVRDQAAGGLSIRLTNQLKSLKGLQSKLKDVVEYLDKVINKELPINHTILGKLQDVFNLLPNLGTPDDDEIDVENHDRINISNNLQKALTVKTNDELMVIYISNLVRSIIAFDDLIENKIQNKKIQEQRVKDKQSKVSDDSESESGDKEATAPLIQRKNKKN
Turning to B2, the Ub-AMC cleavage rate of Rpn11 in the isolated lid with this variant, relative to the free MPN heterodimer (% of the free MPN-heterodimer levels) in experiment [1] stood at 45.

B3: Rpn8 (K86A) (natural protein)
chain: MSLQHEKVTIAPLVLLSALDHYERTQTKENKRCVGVILGDANSSTIRVTNSFALPFEEDEKNSDVWFLDHNYIENMNEMCKKINAAEKLIGWYHSGPKLRASDLKINELFKKYTQNNPLLLIVDVKQQGVGLPTDAYVAIEQVKDDGTSTEKTFLHLPCTIEAEEAEEIGVEHLLRDVRDQAAGGLSIRLTNQLKSLKGLQSKLKDVVEYLDKVINKELPINHTILGKLQDVFNLLPNLGTPDDDEIDVENHDRINISNNLQKALTVKTNDELMVIYISNLVRSIIAFDDLIENKIQNKKIQEQRVKDKQSKVSDDSESESGDKEATAPLIQRKNKKN
For B3, in experiment [1], the Ub-AMC cleavage rate of Rpn11 in the isolated lid with this variant, relative to the free MPN heterodimer (% of the free MPN-heterodimer levels) amounted to 33.

B4: Rpn8 (Q115A) (natural protein)
chain: MSLQHEKVTIAPLVLLSALDHYERTQTKENKRCVGVILGDANSSTIRVTNSFALPFEEDEKNSDVWFLDHNYIENMNEMCKKINAKEKLIGWYHSGPKLRASDLKINELFKKYTANNPLLLIVDVKQQGVGLPTDAYVAIEQVKDDGTSTEKTFLHLPCTIEAEEAEEIGVEHLLRDVRDQAAGGLSIRLTNQLKSLKGLQSKLKDVVEYLDKVINKELPINHTILGKLQDVFNLLPNLGTPDDDEIDVENHDRINISNNLQKALTVKTNDELMVIYISNLVRSIIAFDDLIENKIQNKKIQEQRVKDKQSKVSDDSESESGDKEATAPLIQRKNKKN
B4 displayed a Ub-AMC cleavage rate of Rpn11 in the isolated lid with this variant, relative to the isolated MPN heterodimer (% of isolated MPN levels) in experiment [1] of 33.

B5: Rpn5 (Y273A) (natural protein)
chain: MSRDAPIKADKDYSQILKEEFPKIDSLAQNDCNSALDQLLVLEKKTRQASDLASSKEVLAKIVDLLASRNKWDDLNEQLTLLSKKHGQLKLSIQYMIQKVMEYLKSSKSLDLNTRISVIETIRVVTENKIFVEVERARVTKDLVEIKKEEGKIDEAADILCELQVETYGSMEMSEKIQFILEQMELSILKGDYSQATVLSRKILKKTFKNPKYESLKLEYYNLLVKISLHKREYLEVAQYLQEIYQTDAIKSDEAKWKPVLSHIVYFLVLSPAGNLQNDLIHKIQNDNNLKKLESQESLVKLFTTNELMRWPIVQKTYEPVLNEDDLAFGGEANKHHWEDLQKRVIEHNLRVISEYYSRITLLRLNELLDLTESQTETYISDLVNQGIIYAKVNRPAKIVNFEKPKNSSQLLNEWSHNVDELLEHIETIGHLITKEEIMHGLQAK
In experiment [2], B5 came in with a Ub-AMC cleavage rate of Rpn11 in the isolated lid with this variant, relative to the isolated Rpn11/Rpn8 dimer (% of the isolated Rpn11/Rpn8 dimer) of 61.

B6: Rpn5 (N275A) (natural protein)
chain: MSRDAPIKADKDYSQILKEEFPKIDSLAQNDCNSALDQLLVLEKKTRQASDLASSKEVLAKIVDLLASRNKWDDLNEQLTLLSKKHGQLKLSIQYMIQKVMEYLKSSKSLDLNTRISVIETIRVVTENKIFVEVERARVTKDLVEIKKEEGKIDEAADILCELQVETYGSMEMSEKIQFILEQMELSILKGDYSQATVLSRKILKKTFKNPKYESLKLEYYNLLVKISLHKREYLEVAQYLQEIYQTDAIKSDEAKWKPVLSHIVYFLVLSPYGALQNDLIHKIQNDNNLKKLESQESLVKLFTTNELMRWPIVQKTYEPVLNEDDLAFGGEANKHHWEDLQKRVIEHNLRVISEYYSRITLLRLNELLDLTESQTETYISDLVNQGIIYAKVNRPAKIVNFEKPKNSSQLLNEWSHNVDELLEHIETIGHLITKEEIMHGLQAK
B6 gave a Ub-AMC cleavage rate of Rpn11 in the isolated lid with this variant, relative to the isolated MPN heterodimer (% of the isolated MPN heterodimer) in experiment [3] of 51.

B7: Rpn5 (H282A,K283A) (natural protein)
chain: MSRDAPIKADKDYSQILKEEFPKIDSLAQNDCNSALDQLLVLEKKTRQASDLASSKEVLAKIVDLLASRNKWDDLNEQLTLLSKKHGQLKLSIQYMIQKVMEYLKSSKSLDLNTRISVIETIRVVTENKIFVEVERARVTKDLVEIKKEEGKIDEAADILCELQVETYGSMEMSEKIQFILEQMELSILKGDYSQATVLSRKILKKTFKNPKYESLKLEYYNLLVKISLHKREYLEVAQYLQEIYQTDAIKSDEAKWKPVLSHIVYFLVLSPYGNLQNDLIAAIQNDNNLKKLESQESLVKLFTTNELMRWPIVQKTYEPVLNEDDLAFGGEANKHHWEDLQKRVIEHNLRVISEYYSRITLLRLNELLDLTESQTETYISDLVNQGIIYAKVNRPAKIVNFEKPKNSSQLLNEWSHNVDELLEHIETIGHLITKEEIMHGLQAK
As for B7, the Ub-AMC cleavage rate of Rpn11 in the isolated lid with this variant, relative to the free MPN heterodimer (% of the free MPN heterodimer) in experiment [4] is 51.

B8: Rpn5 (natural protein, S. cerevisiae (yeast))
chain: MSRDAPIKADKDYSQILKEEFPKIDSLAQNDCNSALDQLLVLEKKTRQASDLASSKEVLAKIVDLLASRNKWDDLNEQLTLLSKKHGQLKLSIQYMIQKVMEYLKSSKSLDLNTRISVIETIRVVTENKIFVEVERARVTKDLVEIKKEEGKIDEAADILCELQVETYGSMEMSEKIQFILEQMELSILKGDYSQATVLSRKILKKTFKNPKYESLKLEYYNLLVKISLHKREYLEVAQYLQEIYQTDAIKSDEAKWKPVLSHIVYFLVLSPYGNLQNDLIHKIQNDNNLKKLESQESLVKLFTTNELMRWPIVQKTYEPVLNEDDLAFGGEANKHHWEDLQKRVIEHNLRVISEYYSRITLLRLNELLDLTESQTETYISDLVNQGIIYAKVNRPAKIVNFEKPKNSSQLLNEWSHNVDELLEHIETIGHLITKEEIMHGLQAK
Consider B8, for which the “Ub-AMC cleavage rate of Rpn11 in the isolated wild-type lid against the free Rpn11/Rpn8 dimer (500 nM enzyme, 2.5 μM Ubiquitin-AMC, 30°C, lid buffer)” value in the experiment with Rpn11 was determined as 5 fold lower.

B9: Rpn5 (H282A) (natural protein)
chain: MSRDAPIKADKDYSQILKEEFPKIDSLAQNDCNSALDQLLVLEKKTRQASDLASSKEVLAKIVDLLASRNKWDDLNEQLTLLSKKHGQLKLSIQYMIQKVMEYLKSSKSLDLNTRISVIETIRVVTENKIFVEVERARVTKDLVEIKKEEGKIDEAADILCELQVETYGSMEMSEKIQFILEQMELSILKGDYSQATVLSRKILKKTFKNPKYESLKLEYYNLLVKISLHKREYLEVAQYLQEIYQTDAIKSDEAKWKPVLSHIVYFLVLSPYGNLQNDLIAKIQNDNNLKKLESQESLVKLFTTNELMRWPIVQKTYEPVLNEDDLAFGGEANKHHWEDLQKRVIEHNLRVISEYYSRITLLRLNELLDLTESQTETYISDLVNQGIIYAKVNRPAKIVNFEKPKNSSQLLNEWSHNVDELLEHIETIGHLITKEEIMHGLQAK
In the case of B9, the Ub-AMC cleavage rate of Rpn11 in the isolated lid with this variant, relative to the free MPN heterodimer (% of the free MPN heterodimer) in experiment [4] was 31.

B10: Rpn5 K283A (natural protein)
chain: MSRDAPIKADKDYSQILKEEFPKIDSLAQNDCNSALDQLLVLEKKTRQASDLASSKEVLAKIVDLLASRNKWDDLNEQLTLLSKKHGQLKLSIQYMIQKVMEYLKSSKSLDLNTRISVIETIRVVTENKIFVEVERARVTKDLVEIKKEEGKIDEAADILCELQVETYGSMEMSEKIQFILEQMELSILKGDYSQATVLSRKILKKTFKNPKYESLKLEYYNLLVKISLHKREYLEVAQYLQEIYQTDAIKSDEAKWKPVLSHIVYFLVLSPYGNLQNDLIHAIQNDNNLKKLESQESLVKLFTTNELMRWPIVQKTYEPVLNEDDLAFGGEANKHHWEDLQKRVIEHNLRVISEYYSRITLLRLNELLDLTESQTETYISDLVNQGIIYAKVNRPAKIVNFEKPKNSSQLLNEWSHNVDELLEHIETIGHLITKEEIMHGLQAK
For B10, the Ub-AMC cleavage rate of Rpn11 in the isolated lid with this variant, relative to the free MPN heterodimer (% of the free MPN heterodimer) in experiment [4] came out at 41.

The values above are taken from publication PMC4749569, “Atomic structure of the 26S proteasome lid reveals the mechanism of deubiquitinase inhibition” (eLife, 2016).
